Source: patent US5871732

Legend:
[1] = target: recombinant soluble CD4 (human CD4 AA1-AA375) (human) (UniProt P01730); assay: RIA, immobilised antibody; 125I-rsCD4 preincubated with the competitor HIV r-gp120 (2.5 µg/ml)
[2] = target: recombinant soluble CD4 (human CD4 AA1-AA375) (human) (UniProt P01730); assay: RIA, immobilised antibody; 125I-rsCD4 preincubated with the soluble competitor Leu3A
[3] = target: CD4-V1V2 polypeptide (AA1-AA180 of human CD4) (human) (UniProt P01730); assay: RIA, antibody captured on goat anti-mouse IgG; CD4-V1V2 (5 µg/ml) competing with 125I-rsCD4
[4] = target: recombinant soluble CD4 (human CD4 AA1-AA375) (human) (UniProt P01730); assay: RIA, immobilised antibody; 125I-rsCD4 preincubated with the soluble competitor OKT4A
[5] = target: CD4-V1 polypeptide (AA1-AA113 and/or AA1-AA111 of human CD4) (human) (UniProt P01730); assay: RIA, antibody captured on goat anti-mouse IgG; CD4-V1 (5 µg/ml) competing with 125I-rsCD4
[6] = target: recombinant soluble CD4 (human CD4 AA1-AA375) (human) (UniProt P01730); assay: RIA, immobilised antibody; 125I-rsCD4 preincubated with the soluble competitor OKT4
[7] = target: recombinant soluble CD4 (human CD4 AA1-AA375) (human) (UniProt P01730); assay: RIA, 125I-rsCD4 preincubated with the soluble antibody; competitor: immobilised 5A8
[8] = target: mouse/human substitution mutant of rsCD4 at AA165 (V2) (human) (UniProt P01730); assay: mutant rsCD4 (1 µg/ml) as competitor of OKT4 binding to CD4+ cells
[9] = target: mouse/human substitution mutant of rsCD4 at AA240-AA252 (V3) (human) (UniProt P01730); assay: as above
[10] = target: mouse/human substitution mutant of rsCD4 at AA220-AA226 (V3) (human) (UniProt P01730); assay: as above
[11] = target: mouse/human substitution mutant of rsCD4 at AA127-AA134 (V2) (human) (UniProt P01730); assay: as above
[12] = target: mouse/human substitution mutant of rsCD4 at AA121-AA124 (V2) (human) (UniProt P01730); assay: as above
[13] = target: mouse/human substitution mutant of rsCD4 at AA60 (V1) (human) (UniProt P01730); assay: as above
[14] = target: human CD4 displayed on the surface of CD4+ cells (human) (UniProt P01730)

Q: “OKT4A, CD4 V1-specific anti-CD4 mouse monoclonal antibody (Ortho Diagnostic Systems)” was tested. Which HIV r-gp120 % Inhibition rsCD4 Binding [1] did it give?
A: 66.1%

Q: What about the % Inhibition rsCD4 Binding By Leu 3A [2] of the same substance?
A: 62%

Q: And the CD4-V1V2 % Inhibition of rsCD4 Binding [3]?
A: 95.5%

Q: And the % Inhibition rsCD4 Binding By OKT4A [4]?
A: 68.5%

Q: What about the CD4-V1 % Inhibition of rsCD4 Binding [5] of the same substance?
A: 87.3%

Q: What about the % Inhibition rsCD4 Binding By OKT4 [6] of the same substance?
A: -26.8%

Q: Which % Inhibition rsCD4 Binding [7] does the source give for “OKT4, CD4 V3V4-specific anti-CD4 mouse monoclonal antibody (Ortho Diagnostic Systems)” here?
A: 4%

Q: What about the HIV r-gp120 % Inhibition rsCD4 Binding [1] of the same substance?
A: -8.2%

Q: And the % blocking of OKT4 binding to CD4+ cells [8]?
A: 60%

Q: And the % blocking of OKT4 binding to CD4+ cells [9]?
A: 60%

Q: And the % blocking of OKT4 binding to CD4+ cells [10]?
A: 60%

Q: And the % blocking of OKT4 binding to CD4+ cells [11]?
A: 60%

Q: What about the % blocking of OKT4 binding to CD4+ cells [12] of the same substance?
A: 60%

Q: What about the % blocking of OKT4 binding to CD4+ cells [13] of the same substance?
A: 60%

Q: What about the % Inhibition rsCD4 Binding By Leu 3A [2] of the same substance?
A: 8.4%

Q: What about the CD4-V1V2 % Inhibition of rsCD4 Binding [3] of the same substance?
A: 14.4%

Q: What about the % Inhibition rsCD4 Binding By OKT4A [4] of the same substance?
A: 3.6%

Q: What about the CD4-V1 % Inhibition of rsCD4 Binding [5] of the same substance?
A: -5.5%

Q: And the % Inhibition rsCD4 Binding By OKT4 [6]?
A: 91.3%

Q: With “Leu3A, CD4 V1-specific monoclonal antibody (Becton Dickinson)” as the substance, how does the % Inhibition rsCD4 Binding [7] read?
A: 0%

Q: And the HIV r-gp120 % Inhibition rsCD4 Binding [1]?
A: 85.1%

Q: And the concentration inhibiting syncytia formation 50% [14]?
A: 0.02 µg/mL

Q: And the % Inhibition rsCD4 Binding By Leu 3A [2]?
A: 85.8%

Q: What about the CD4-V1V2 % Inhibition of rsCD4 Binding [3] of the same substance?
A: 94%

Q: What about the % Inhibition rsCD4 Binding By OKT4A [4] of the same substance?
A: 73.9%

Q: And the CD4-V1 % Inhibition of rsCD4 Binding [5]?
A: 88.2%

Q: What about the % Inhibition rsCD4 Binding By OKT4 [6] of the same substance?
A: -10.3%
